How the values were obtained:
[1] = target: T1, recombinant Bet v 1, major birch pollen allergen (Betula pendula (B. verrucosa), UniProt P15494); experiment: cell-based or functional assay
[2] = target: T2, Cor a 1, Bet v 1-related allergen from hazel (Corylus avellana, UniProt Q08407); experiment: ELISA; inhibition ELISA: plate-bound allergen (1 ug/mL) pre-incubated with 20 ug/mL H3-1 or control ScFv, then sera of birch pollen-allergic patients diluted 1:5; bound IgE detected; % reduction against control ScFv; conditions: both partners purified
T2 construct: Cor a 1, hazel allergen, Swissprot Q08407; source: recombinant; materials described in Data S1
Target sequence in this assay (Q08407 whole entry, looked up): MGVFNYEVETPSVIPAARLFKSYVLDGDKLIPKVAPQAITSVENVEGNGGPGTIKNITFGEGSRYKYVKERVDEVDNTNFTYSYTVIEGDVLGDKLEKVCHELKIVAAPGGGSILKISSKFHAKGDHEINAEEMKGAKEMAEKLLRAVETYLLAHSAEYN

[3] = target: T3, Aln g 1, Bet v 1-related allergen from alder (Alnus glutinosa, UniProt P38948); experiment: as above; conditions: both partners purified
T3 construct: Aln g 1, alder pollen allergen, Swissprot P38948; source: recombinant; materials described in Data S1
Target sequence in this assay (P38948 whole entry, looked up): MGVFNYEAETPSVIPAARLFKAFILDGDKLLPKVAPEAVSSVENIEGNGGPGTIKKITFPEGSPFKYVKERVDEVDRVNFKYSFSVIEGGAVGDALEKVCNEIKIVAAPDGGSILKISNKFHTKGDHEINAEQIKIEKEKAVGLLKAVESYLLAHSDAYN

[4] = target: T1, recombinant Bet v 1, major birch pollen …; experiment: as above; conditions: both partners purified
[5] = target: T4, Mal d 1, Bet v 1-related allergen from apple (Malus domestica, UniProt Q9SYW3); experiment: as above; conditions: both partners purified
T4 construct: Mal d 1, apple allergen, Swissprot Q9SYW3; source: recombinant; materials described in Data S1
T4 sequence (Q9SYW3 entry or part of it): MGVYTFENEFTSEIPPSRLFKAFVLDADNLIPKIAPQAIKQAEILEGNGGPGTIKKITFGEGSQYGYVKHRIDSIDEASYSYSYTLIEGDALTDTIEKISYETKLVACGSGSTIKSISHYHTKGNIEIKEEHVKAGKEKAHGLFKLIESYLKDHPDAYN

bovine serum albumin = target: T5, bovine serum albumin (Bos taurus, UniProt P02769); experiment: ELISA; allergens, fragments, peptides or BSA coated at 4 ug/mL in 1xPBS; blocked with 1xPBS/3% BSA; 1 ug/mL H3-1 added; bound ScFv traced with anti-E Tag antibody; conditions: both partners purified
T5 construct: bovine serum albumin, control protein; also called BSA
T5 sequence (P02769 25-607): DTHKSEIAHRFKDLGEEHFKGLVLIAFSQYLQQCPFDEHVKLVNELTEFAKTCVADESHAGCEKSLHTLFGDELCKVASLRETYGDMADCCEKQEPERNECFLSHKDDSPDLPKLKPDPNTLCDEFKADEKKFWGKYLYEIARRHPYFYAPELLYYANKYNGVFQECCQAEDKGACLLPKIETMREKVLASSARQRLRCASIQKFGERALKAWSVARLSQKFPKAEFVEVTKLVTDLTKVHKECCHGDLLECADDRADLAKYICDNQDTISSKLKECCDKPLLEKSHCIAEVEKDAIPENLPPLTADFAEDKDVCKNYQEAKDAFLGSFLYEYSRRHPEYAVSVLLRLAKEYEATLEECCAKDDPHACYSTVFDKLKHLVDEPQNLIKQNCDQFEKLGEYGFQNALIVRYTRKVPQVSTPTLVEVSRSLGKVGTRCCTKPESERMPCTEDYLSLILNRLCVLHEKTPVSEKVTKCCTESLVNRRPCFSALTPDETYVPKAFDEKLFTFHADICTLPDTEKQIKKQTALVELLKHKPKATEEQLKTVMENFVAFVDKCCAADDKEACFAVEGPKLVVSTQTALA

[6] = target: T6, synthetic Bet v 1-derived peptide 5 (aa 130-160) (Betula pendula, UniProt P15494); experiment: as above; conditions: both partners purified
T6 construct: Bet v 1, birch, Swissprot P15494, C-terminal peptide aa 130-160; also called C-terminal peptide 5; source: synthetic peptide
T6 chain: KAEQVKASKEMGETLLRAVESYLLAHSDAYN

[7] = target: T2, Cor a 1, Bet v 1-related allergen from …; experiment: SPR; Biacore 2000, 25°C; allergens amine-coupled to CM5 chip; reference cell BSA; H3-1 in HBS-EP pH 7.4 injected in twofold increasing concentrations at 30 uL/min; 1:1 interaction model; conditions: both partners purified
[8] = target: T3, Aln g 1, Bet v 1-related allergen from …; experiment: as above; conditions: both partners purified
[9] = target: T1, recombinant Bet v 1, major birch pollen …; experiment: as above; conditions: both partners purified
[10] = target: T4, Mal d 1, Bet v 1-related allergen from …; experiment: as above; conditions: both partners purified
[11] = target: T2, Cor a 1, Bet v 1-related allergen from …; experiment: ELISA; inhibition ELISA: plate-bound allergen (1 ug/mL) pre-incubated with 20 ug/mL H3-1 or control ScFv, then sera of birch pollen-allergic patients diluted 1:5; bound IgE detected; % reduction against control ScFv; conditions: both partners purified; remark: listed apart in the source
Target sequence in this assay (Q08407 whole entry, looked up): as the sequence (Q08407 whole entry, looked up) above

[12] = target: T3, Aln g 1, Bet v 1-related allergen from …; experiment: as above; conditions: both partners purified; remark: listed apart in the source
Target sequence in this assay (P38948 whole entry, looked up): as the sequence (P38948 whole entry, looked up) above

[13] = target: T4, Mal d 1, Bet v 1-related allergen from …; experiment: as above; conditions: both partners purified; remark: listed apart in the source

B1: Bet v 1-specific IgG-derived ScFv H3-1 (scFv, V domains shown)
VH: QVQLVQSGAEVKKPGSSVKVSCKASGGTFSSYAISWVRQAPGQGLEWMGRIIPILGIVNYAQKFQGRVTITADKSTSTAYMELSSLRSEDTAVYYCAREPLGYCSGGSCYPLHNGMDVWGQGTTVTVSS
VL: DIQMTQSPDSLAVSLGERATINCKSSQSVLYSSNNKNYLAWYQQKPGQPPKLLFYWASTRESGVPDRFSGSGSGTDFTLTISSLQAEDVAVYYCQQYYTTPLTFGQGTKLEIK
notes: VH of H3-1 (H3-1_HV); (Gly4Ser)3 linker; V kappa of H3-1 (H3-1_KV); Cloned in phagemid pCANTAB 5E; The E tag is named for the direct ELISA (detection with anti-E Tag antibody); A form with a C-terminal His tag was also constructed; also called ScFv (clone H3-1); H3-1 ScFv; source: also tested as soluble ScFv after conversion of phage clones; not shown: E tag, C-terminal, kept
- Bet v 1-induced basophil activation (CD203c upregulation), blood of patient #12; Bet v 1 pre-incubated with H3-1 against control ScFv [1]: ~5 fold
- Bet v 1-induced basophil activation (CD203c upregulation), blood of patient #14; Bet v 1 pre-incubated with H3-1 against control ScFv; augmentation, not reduction [1]: ~5 fold
- Bet v 1-induced basophil activation (CD203c upregulation), blood of patient #22; Bet v 1 pre-incubated with H3-1 against control ScFv [1]: ~25 fold
- Bet v 1-induced basophil activation (CD203c upregulation), blood of patient #26; Bet v 1 pre-incubated with H3-1 against control ScFv [1]: ~5 fold
- % inhibition of IgE binding, patient 1 [2]: 32.7%
- % inhibition of IgE binding, patient 5 [2]: 29%
- % inhibition of IgE binding, patient 7 [2]: 19%
- % inhibition of IgE binding, patient 9 [2]: 48.9%
- % inhibition of IgE binding, patient 10 [2]: 8.6%
- % inhibition of IgE binding, patient 12 [2]: 44.9%
- % inhibition of IgE binding, patient 13 [2]: 35%
- % inhibition of IgE binding, patient 16 [2]: 18.4%
- % inhibition of IgE binding, patient 17 [2]: 43%
- % inhibition of IgE binding, patient 18 [2]: 40.9%
- % inhibition of IgE binding, patient 19 [2]: 33.6%
- % inhibition of IgE binding, patient 20 [2]: 33.9%
- % inhibition of IgE binding, patient 21 [2]: 6%
- % inhibition of IgE binding, patient 22 [2]: 53.7%
- % inhibition of IgE binding, patient 23 [2]: 21.1%
- % inhibition of IgE binding, patient 24 [2]: 36%
- % inhibition of IgE binding, patient 25 [2]: 57.6%
- % inhibition of IgE binding, patient 26 [2]: 22%
- % inhibition of IgE binding, patient 27 [2]: 31.2%
- % inhibition of IgE binding, patient 28 [2]: 45.1%
- % inhibition of IgE binding, patient 29 [2]: 39.6%
- % inhibition of IgE binding, patient 30 [2]: 29.5%
- mean % inhibition of patients' IgE binding [2]: 29.1%
- % inhibition of IgE binding, patient 1 [3]: 8.2%
- % inhibition of IgE binding, patient 7 [3]: 6.3%
- % inhibition of IgE binding, patient 9 [3]: 15.3%
- % inhibition of IgE binding, patient 11 [3]: 22.5%
- % inhibition of IgE binding, patient 12 [3]: 14.5%
- % inhibition of IgE binding, patient 13 [3]: 11.4%
- % inhibition of IgE binding, patient 16 [3]: 16.3%
- % inhibition of IgE binding, patient 17 [3]: 25%
- % inhibition of IgE binding, patient 19 [3]: 16.5%
- % inhibition of IgE binding, patient 20 [3]: 6.9%
- % inhibition of IgE binding, patient 21 [3]: 13.4%
- % inhibition of IgE binding, patient 22 [3]: 37.1%
- % inhibition of IgE binding, patient 23 [3]: 6.2%
- % inhibition of IgE binding, patient 24 [3]: 12.9%
- % inhibition of IgE binding, patient 25 [3]: 17.5%
- % inhibition of IgE binding, patient 26 [3]: 23.7%
- % inhibition of IgE binding, patient 27 [3]: 26.1%
- % inhibition of IgE binding, patient 28 [3]: 26.1%
- % inhibition of IgE binding, patient 30 [3]: 10.7%
- mean % inhibition of patients' IgE binding [3]: 13.2%
- % inhibition of IgE binding, patient 1 [4]: 60.9%
- % inhibition of IgE binding, patient 5 [4]: 27.6%
- % inhibition of IgE binding, patient 7 [4]: 42.2%
- % inhibition of IgE binding, patient 9 [4]: 52.8%
- % inhibition of IgE binding, patient 10 [4]: 41.7%
- % inhibition of IgE binding, patient 11 [4]: 51.3%
- % inhibition of IgE binding, patient 12 [4]: 61.4%
- % inhibition of IgE binding, patient 13 [4]: 50.5%
- % inhibition of IgE binding, patient 16 [4]: 49.2%
- % inhibition of IgE binding, patient 17 [4]: 51%
- % inhibition of IgE binding, patient 18 [4]: 57.4%
- % inhibition of IgE binding, patient 19 [4]: 54.6%
- % inhibition of IgE binding, patient 20 [4]: 15.8%
- % inhibition of IgE binding, patient 21 [4]: 44.9%
- % inhibition of IgE binding, patient 22 [4]: 62.9%
- % inhibition of IgE binding, patient 23 [4]: 47.3%
- % inhibition of IgE binding, patient 24 [4]: 44.3%
- % inhibition of IgE binding, patient 25 [4]: 62.9%
- % inhibition of IgE binding, patient 26 [4]: 50.6%
- % inhibition of IgE binding, patient 27 [4]: 62.1%
- % inhibition of IgE binding, patient 29 [4]: 38.8%
- % inhibition of IgE binding, patient 30 [4]: 56.8%
- mean % inhibition of patients' IgE binding [4]: 45%
- % inhibition of IgE binding, patient 1 [5]: 8.6%
- % inhibition of IgE binding, patient 5 [5]: 3.6%
- % inhibition of IgE binding, patient 9 [5]: 10.9%
- % inhibition of IgE binding, patient 10 [5]: 10.5%
- % inhibition of IgE binding, patient 11 [5]: 19.1%
- % inhibition of IgE binding, patient 12 [5]: 22.4%
- % inhibition of IgE binding, patient 13 [5]: 27.4%
- % inhibition of IgE binding, patient 16 [5]: 2.3%
- % inhibition of IgE binding, patient 17 [5]: 40.5%
- % inhibition of IgE binding, patient 18 [5]: 17.1%
- % inhibition of IgE binding, patient 19 [5]: 15.3%
- % inhibition of IgE binding, patient 20 [5]: 16.5%
- % inhibition of IgE binding, patient 21 [5]: 11.9%
- % inhibition of IgE binding, patient 22 [5]: 26.3%
- % inhibition of IgE binding, patient 23 [5]: 3%
- % inhibition of IgE binding, patient 24 [5]: 19.3%
- % inhibition of IgE binding, patient 25 [5]: 17.9%
- % inhibition of IgE binding, patient 26 [5]: 19.7%
- % inhibition of IgE binding, patient 27 [5]: 27.4%
- % inhibition of IgE binding, patient 28 [5]: 8.2%
- % inhibition of IgE binding, patient 29 [5]: 22.5%
- mean % inhibition of patients' IgE binding [5]: 16.1%
- binding result (bovine serum albumin): no binding (tested: 1 μg/mL H3-1)
- binding result [6]: binds
- Kd [7]: 6.83 nM
- koff [7]: 0.000299 s⁻¹
- kon [7]: 43800 M⁻¹ s⁻¹
- Kd [8]: 2.96 nM
- koff [8]: 0.00112 s⁻¹
- kon [8]: 378000 M⁻¹ s⁻¹
- Kd [9]: 0.622 nM
- koff [9]: 0.00022 s⁻¹
- kon [9]: 353000 M⁻¹ s⁻¹
- Kd [10]: 2.57 nM
- koff [10]: 0.000145 s⁻¹
- kon [10]: 56400 M⁻¹ s⁻¹
- mean % inhibition of patients' IgE binding [11]: 24.3%
- mean % inhibition of patients' IgE binding [12]: 11.9%
- mean % inhibition of patients' IgE binding [13]: 13.5%
